Experimental data taken from PMC6179184, “Interaction of the Warsaw breakage syndrome DNA helicase DDX11 with the replication fork-protection factor Timeless promotes sister chromatid cohesion” (PLoS Genetics, 2018).

T1: recombinant human Flag-Timeless (human, UniProt Q9UNS1 1-1208)
T1 construct: Timeless, human, component of the replication fork-protection complex; also called Flag-tagged Timeless; source: insect cells infected with a recombinant baculovirus (Sf9), purified
T1 sequence (looked up): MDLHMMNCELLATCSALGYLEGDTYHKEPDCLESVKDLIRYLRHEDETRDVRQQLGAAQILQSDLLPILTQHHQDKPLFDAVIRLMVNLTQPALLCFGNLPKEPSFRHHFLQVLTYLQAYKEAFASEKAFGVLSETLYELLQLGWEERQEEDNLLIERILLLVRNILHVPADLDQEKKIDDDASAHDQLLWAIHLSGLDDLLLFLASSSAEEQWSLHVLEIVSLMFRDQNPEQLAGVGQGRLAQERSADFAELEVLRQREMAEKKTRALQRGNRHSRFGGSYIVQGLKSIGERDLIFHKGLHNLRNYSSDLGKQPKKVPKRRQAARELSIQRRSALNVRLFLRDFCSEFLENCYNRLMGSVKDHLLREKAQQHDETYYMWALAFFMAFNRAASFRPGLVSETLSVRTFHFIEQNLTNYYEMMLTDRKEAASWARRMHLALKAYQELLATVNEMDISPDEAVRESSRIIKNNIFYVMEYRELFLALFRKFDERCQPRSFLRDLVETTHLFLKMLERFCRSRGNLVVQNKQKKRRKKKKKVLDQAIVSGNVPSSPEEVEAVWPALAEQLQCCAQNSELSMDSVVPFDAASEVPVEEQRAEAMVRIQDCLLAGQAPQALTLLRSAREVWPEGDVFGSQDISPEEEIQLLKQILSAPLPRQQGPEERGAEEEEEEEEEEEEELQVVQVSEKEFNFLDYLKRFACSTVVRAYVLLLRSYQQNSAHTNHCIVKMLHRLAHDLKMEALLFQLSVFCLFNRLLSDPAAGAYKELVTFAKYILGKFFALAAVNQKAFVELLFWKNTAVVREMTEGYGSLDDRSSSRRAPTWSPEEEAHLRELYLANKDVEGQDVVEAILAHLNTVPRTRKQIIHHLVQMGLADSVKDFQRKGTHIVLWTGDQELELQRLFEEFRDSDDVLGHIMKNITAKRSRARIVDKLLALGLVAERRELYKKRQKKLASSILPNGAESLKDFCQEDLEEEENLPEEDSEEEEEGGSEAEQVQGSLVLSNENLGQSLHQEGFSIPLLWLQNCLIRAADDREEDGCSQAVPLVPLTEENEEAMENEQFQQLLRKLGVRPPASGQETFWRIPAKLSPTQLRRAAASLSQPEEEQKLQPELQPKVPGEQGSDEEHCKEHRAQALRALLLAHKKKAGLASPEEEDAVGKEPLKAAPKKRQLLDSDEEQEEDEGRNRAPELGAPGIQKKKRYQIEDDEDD

B1: DDX11 Peptide # 32 (peptide)
peptide: EQLESGEEELVLAEY
notes: 15-residue peptide of human DDX11 (906-residue protein), in Region T (65-225); its two C-terminal residues are Glu201 and Tyr202 of full-length DDX11; source: synthetic peptide, printed on a PEPperCHIP microarray (PEPperPRINT)
B2: DDX11-3xFlag wild type (enzyme, human, UniProt Q96FC9-2 1-906, looked up)
chain: MANETQKVGAIHFPFPFTPYSIQEDFMAELYRVLEAGKIGIFESPTGTGKSLSLICGALSWLRDFEQKKREEEARLLETGTGPLHDEKDESLCLSSSCEGAAGTPRPAGEPAWVTQFVQKKEERDLVDRLKAEQARRKQREERLQQLQHRVQLKYAAKRLRQEEEERENLLRLSREMLETGPEAERLEQLESGEEELVLAEYESDEEKKVASRVDEDEDDLEEEHITKIYYCSRTHSQLAQFVHEVKKSPFGKDVRLVSLGSRQNLCVNEDVKSLGSVQLINDRCVDMQRSRHEKKKGAEEEKPKRRRQEKQAACPFYNHEQMGLLRDEALAEVKDMEQLLALGKEARACPYYGSRLAIPAAQLVVLPYQMLLHAATRQAAGIRLQDQVVIIDEAHNLIDTITGMHSVEVSGSQLCQAHSQLLQYVERYGKRLKAKNLMYLKQILYLLEKFVAVLGGNIKQNPNTQSLSQTGTELKTINDFLFQSQIDNINLFKVQRYCEKSMISRKLFGFTERYGAVFSSREQPKLAGFQQFLQSLQPRTTEALAAPADESQASTLRPASPLMHIQGFLAALTTANQDGRVILSRQGSLSQSTLKFLLLNPAVHFAQVVKECRAVVIAGGTMQPVSDFRQQLLACAGVEAERVVEFSCGHVIPPDNILPLVICSGISNQPLEFTFQKRELPQMMDEVGRILCNLCGVVPGGVVCFFPSYEYLRQVHAHWEKGGLLGRLAARKKIFQEPKSAHQVEQVLLAYSRCIQACGQERGQVTGALLLSVVGGKMSEGINFSDNLGRCVVMVGMPFPNIRSAELQEKMAYLDQTLPRAPGQAPPGKALVENLCMKAVNQSIGRAIRHQKDFASVVLLDQRYARPPVLAKLPAWIRARVEVKATFGPAIAAVQKFHREKSASS
notes: DDX11 (ChlR1), human, full-length protein of 906 residues (1-906); also called Flag-tagged wild type (WT) DDX11; ChlR1; source: HEK 293T, transiently transfected (pcDNA 3.0); purified, and in whole cell extract; not shown: 3xFlag, C-terminal, kept

What was measured:
[1] = molecular target: T1, recombinant human Flag-Timeless; experiment: peptide or protein array; PEPperCHIP microarrays of 15-residue DDX11 peptides on glass slides (tiling array, 13-residue overlap; full substitution scan of peptide # 32); Flag-Timeless at 50 ug/mL in PBS, 0.05% Tween 20, 1% BSA for 16 hr; detected with Cy3-labelled anti-Flag antibody; control array without Flag-Timeless; conditions: both partners purified
[2] = molecular target: T1, recombinant human Flag-Timeless; experiment: pull-down; mixtures of purified recombinant proteins (Timeless 0.8 ug or cohesin 1 ug, DDX11 0.5 ug, 200 uL) with anti-DDX11 antibody on Protein A beads; 25 mM Tris-HCl pH 7.5, 150 mM NaCl, 2 mM MgCl2, 1 mM DTT, 5% glycerol, 2 hr at 4 C; washes with 300 mM NaCl, 0.25% Triton X-100; immuno-blot; conditions: both partners purified

Row | Binder | binding result [1] | binding result [2]
1 | B1 | binds | –
2 | B2 | – | binds
